Target: T1, VEGF (UniProt P15692-4 27-191)
T1 construct: Bought reagent; also called vascular endothelial growth factor
Assay: BIACORE SPR

T1 sequence (P15692 other isoform, or with tags, fused parts or gaps limits assumed): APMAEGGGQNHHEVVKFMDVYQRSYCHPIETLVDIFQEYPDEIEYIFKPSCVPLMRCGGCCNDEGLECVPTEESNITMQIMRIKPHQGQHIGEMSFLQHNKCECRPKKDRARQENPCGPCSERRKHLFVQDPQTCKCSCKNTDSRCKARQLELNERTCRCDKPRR

Row | Kd [nM] | koff [s⁻¹] | kon [M⁻¹ s⁻¹] | Binder
1 | 0.0115 | 1.06e-06 | 92200 | DVD451 (bispecific antibody, human IgG1, kappa, L234A L235A, DVD-Ig; N-term; AB069 (DLL4), C-term; AB071 (VEGF); HC linker long, LC linker long; also called DVD451H; DVD451L) heavy: not shown light: DIVMTQSPDSLAVSLGERATISCRASESVDNYGISFMKWFQQKPGQPPKLLIYAASNQGSGVPDRFSGSGSGTDFTLTISSLQAEDVAVYYCQQSKEVPWTFGGGTKVEIKRTVAAPSVFIFPPDIQMTQSPSSLSASVGDRVTITCRASQVIRRSLAWYQQKPGKAPKLLIYAASNLASGVPSRFSGSGSGTDFTLTISSLQPEDFATYYCQQSNTSPLTFGQGTKVEIKRTVAAPSVFIFPPSDEQLKSGTASVVCLLNNFYPREAKVQWKVDNALQSGNSQESVTEQDSKDSTYSLSSTLTLSKADYEKHKVYACEVTHQGLSSPVTKSFNRGEC
2 | 0.771 | 0.000479 | 621000 | DVD463 (bispecific antibody, human IgG1, kappa, DVD-Ig; N-term; AB069 (DLL4), C-term; AB071 (VEGF); HC linker short, LC linker long; also called DVD463H; DVD463L) heavy: not shown light: DIVMTQSPDSLAVSLGERATISCRASESVDNYGISFMKWFQQKPGQPPKLLIYAASNQGSGVPDRFSGSGSGTDFTLTISSLQAEDVAVYYCQQSKEVPWTFGGGTKVEIKRTVAAPSVFIFPPDIQMTQSPSSLSASVGDRVTITCRASQVIRRSLAWYQQKPGKAPKLLIYAASNLASGVPSRFSGSGSGTDFTLTISSLQPEDFATYYCQQSNTSPLTFGQGTKVEIKRTVAAPSVFIFPPSDEQLKSGTASVVCLLNNFYPREAKVQWKVDNALQSGNSQESVTEQDSKDSTYSLSSTLTLSKADYEKHKVYACEVTHQGLSSPVTKSFNRGEC
3 | 0.72 | 0.000245 | 340000 | DVD491 (bispecific antibody, human IgG1, kappa, DVD-Ig; N-term; AB072 (DLL4), C-term; AB071 (VEGF); HC linker short, LC linker short; also called DVD491H; DVD491L) heavy: not shown light: DIQMTQSSSYLSVSLGGRVTITCKASDHINNWLAWYQQKPGNAPRLLISGATSLETGVPSRFSGSGSGKDYTLSITSLQTEDVATYYCQQYWSIPLTFGAGTKLELKRTVAAPDIQMTQSPSSLSASVGDRVTITCRASQVIRRSLAWYQQKPGKAPKLLIYAASNLASGVPSRFSGSGSGTDFTLTISSLQPEDFATYYCQQSNTSPLTFGQGTKVEIKRTVAAPSVFIFPPSDEQLKSGTASVVCLLNNFYPREAKVQWKVDNALQSGNSQESVTEQDSKDSTYSLSSTLTLSKADYEKHKVYACEVTHQGLSSPVTKSFNRGEC
4 | 0.466 | 0.000105 | 226000 | DVD503 (bispecific antibody, human IgG1, kappa, DVD-Ig; N-term; AB072 (DLL4), C-term; AB071 (VEGF); HC linker long, LC linker short; also called DVD503H; DVD503L) heavy: not shown light: DIQMTQSSSYLSVSLGGRVTITCKASDHINNWLAWYQQKPGNAPRLLISGATSLETGVPSRFSGSGSGKDYTLSITSLQTEDVATYYCQQYWSIPLTFGAGTKLELKRTVAAPDIQMTQSPSSLSASVGDRVTITCRASQVIRRSLAWYQQKPGKAPKLLIYAASNLASGVPSRFSGSGSGTDFTLTISSLQPEDFATYYCQQSNTSPLTFGQGTKVEIKRTVAAPSVFIFPPSDEQLKSGTASVVCLLNNFYPREAKVQWKVDNALQSGNSQESVTEQDSKDSTYSLSSTLTLSKADYEKHKVYACEVTHQGLSSPVTKSFNRGEC
5 | 0.882 | 0.000588 | 666000 | DVD521 (bispecific antibody, human IgG1, kappa, lambda, L234A L235A, DVD-Ig; N-term; AB073 (DLL4), C-term; AB071 (VEGF); HC linker long, LC linker long; also called DVD521H; DVD521L) heavy: not shown light: QAVVTQESALTTSPGETVTLTCRSSTGAVTTSNYANWVQEKPDHLFTGLIGGTNNRAPGVPARFSGSLIGDKAALTITGAQTEDEAIYFCALWYSNHWVFGGGTKLTVLGQPKAAPSVTLFPPDIQMTQSPSSLSASVGDRVTITCRASQVIRRSLAWYQQKPGKAPKLLIYAASNLASGVPSRFSGSGSGTDFTLTISSLQPEDFATYYCQQSNTSPLTFGQGTKVEIKRTVAAPSVFIFPPSDEQLKSGTASVVCLLNNFYPREAKVQWKVDNALQSGNSQESVTEQDSKDSTYSLSSTLTLSKADYEKHKVYACEVTHQGLSSPVTKSFNRGEC
6 | 0.825 | 0.000501 | 608000 | DVD533 (bispecific antibody, human IgG1, kappa, lambda, L234A L235A, DVD-Ig; N-term; AB073 (DLL4), C-term; AB071 (VEGF); HC linker short, LC linker long; also called DVD533H; DVD533L) heavy: not shown light: QAVVTQESALTTSPGETVTLTCRSSTGAVTTSNYANWVQEKPDHLFTGLIGGTNNRAPGVPARFSGSLIGDKAALTITGAQTEDEAIYFCALWYSNHWVFGGGTKLTVLGQPKAAPSVTLFPPDIQMTQSPSSLSASVGDRVTITCRASQVIRRSLAWYQQKPGKAPKLLIYAASNLASGVPSRFSGSGSGTDFTLTISSLQPEDFATYYCQQSNTSPLTFGQGTKVEIKRTVAAPSVFIFPPSDEQLKSGTASVVCLLNNFYPREAKVQWKVDNALQSGNSQESVTEQDSKDSTYSLSSTLTLSKADYEKHKVYACEVTHQGLSSPVTKSFNRGEC

Target: T2, DLL4 (DLL ECD His tag, R&D 1506-D4-050) (UniProt Q9NR61 27-529)
T2 construct: extracellular domain; bought
Assay: BIACORE (SPR), DVD-Ig against DLL4

Row | Kd [nM] | koff [s⁻¹] | kon [M⁻¹ s⁻¹] | Binder
7 | 1.03 | 7.02e-05 | 68400 | DVD470 (bispecific antibody, human IgG1, kappa, DVD-Ig; N-term; VD VEGF (AB014), C-term; VD DLL4 (AB015); HC linker long, LC linker long; also called DVD-Ig DVD470; DVD470H) heavy: not shown light: DIQMTQSPSSLSASVGDRVTITCSASQDISNYLNWYQQKPGKAPKVLIYFTSSLHSGVPSRFSGSGSGTDFTLTISSLQPEDFATYYCQQYSTVPWTFGQGTKVEIKRTVAAPSVFIFPPDIQMTQSPSSLSASVGDRVTITCRASQDVSTAVAWYQQKPGKAPKLLIYSASFLYSGVPSRFSGSGSGTDFTLTISSLQPEDFATTYYCQQSYTGTVTFGQGTKVEIKRTVAAPSVFIFPPSDEQLKSGTASVVCLLNNFYPREAKVQWKVDNALQSGNSQESVTEQDSKDSTYSLSSTLTLSKADYEKHKVYACEVTHQGLSSPVTKSFNRGEC
8 | 8.4 | 0.000281 | 33400 | DVD043 (bispecific antibody, human IgG1, kappa, DVD-Ig; N-term; VD VEGF (AB014), C-term; VD DLL4 (AB015); HC linker short, LC linker short; also called DVD-Ig DVD043; DVD043H) heavy: not shown light: DIQMTQSPSSLSASVGDRVTITCSASQDISNYLNWYQQKPGKAPKVLIYFTSSLHSGVPSRFSGSGSGTDFTLTISSLQPEDFATYYCQQYSTVPWTFGQGTKVEIKRTVAAPDIQMTQSPSSLSASVGDRVTITCRASQDVSTAVAWYQQKPGKAPKLLIYSASFLYSGVPSRFSGSGSGTDFTLTISSLQPEDFATTYYCQQSYTGTVTFGQGTKVEIKRTVAAPSVFIFPPSDEQLKSGTASVVCLLNNFYPREAKVQWKVDNALQSGNSQESVTEQDSKDSTYSLSSTLTLSKADYEKHKVYACEVTHQGLSSPVTKSFNRGEC
